From PMC8287954
Numbering of substitutions follows the chain as printed. Numbers in names are those of the source.

Assays:
Test in all cases: SEC-MALS
[1] = target: hsSMNΔ5(T274I)•Gemin2, Q16637;O14893; settings: chain shown with the change; 20°C; peak concentration 0.5 µM; parent: 231 (188-454)
[2] = target: hsSMNΔ5(G279V)•Gemin2, Q16637;O14893; settings: chain shown with the change; 20°C; peak concentration 0.3 µM; parent: 231 (188-454)
[3] = target: hsSMNΔ5(H273R)•Gemin2, Q16637;O14893; settings: chain shown with the change; 20°C; peak concentration 0.5 µM; parent: 231 (188-454)

B1: hsSMNΔ5•Gemin2 complex, O14893 T274I (protein)
chain 1: MAMSSGGSGGGVPEQEDSVLFRRGTGQSDDSDIWDDTALIKAYDKAVASFKHALKNGDICETSGKPKTTPKRKPAKKNKSQKKNTAASLQQWKVGDKCSAIWSEDGCIYPATIASIDFKRETCVVVYTGYGNREEQNLSDLLSPICEVANNIEQNAQENENESQVSTDESENSRSPGNKSDNIKPKSAPWNSFLPPPPPMPGPRLGPGKIIPPPPPICPDSLDDADALGSMLISWYMSGYHIGYYMGFRQNQKEGRCSHSLN
chain 2: MAWVPAESAVEELMPRLLPVEPCDLTEGFDPSVPPRTPQEYLRRVQIEAAQCPDVVVAQIDPKKLKRKQSVNISLSGCQPAPEGYSPTLQWQQQQVAQFSTVRQNVNKHRSHWKSQQLDSNVTMPKSEDEEGWKKFCLGEKLCADGAVGPATNESPGIDYVQIGFPPLLSIVSRMNQATVTSVLEYLSNWFGERDFTPELGRWLYALLACLEKPLLPEAHSLIRQLARRCSEVRLLVDSKDDERVPALNLLICLVSRYFDQRDLADEPS
B1 was tested, and the other: SEC-MALS Mw [1] was 198.

B2: hsSMNΔ5•Gemin2 complex, O14893 G279V (protein)
chain 1: B1 chain 1 with I242T, G247V
chain 2: B1 chain 2
With B2 the other: SEC-MALS Mw [2] was 384.

B3: hsSMNΔ5•Gemin2 complex, O14893 H273R (protein)
chain 1: B1 chain 1 with H241R, I242T
chain 2: B1 chain 2
In the case of B3, the other: SEC-MALS Mw [3] is reported as 266.
